Results reported in PMC11084668, “EGCG Disrupts the LIN28B/Let-7 Interaction and Reduces Neuroblastoma Aggressiveness”.

T1: rLIN28B (LIN28B-Myc-His) (Homo sapiens, UniProt Q6ZN17 1-250)
T1 sequence: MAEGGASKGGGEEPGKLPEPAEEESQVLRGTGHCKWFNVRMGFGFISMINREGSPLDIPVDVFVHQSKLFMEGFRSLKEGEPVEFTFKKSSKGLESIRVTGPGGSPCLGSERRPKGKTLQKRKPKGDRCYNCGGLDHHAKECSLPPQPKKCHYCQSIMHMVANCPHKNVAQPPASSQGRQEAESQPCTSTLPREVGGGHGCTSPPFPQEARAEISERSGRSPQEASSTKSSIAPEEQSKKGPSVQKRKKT


Assays:
[1] = target: T1, rLIN28B (LIN28B-Myc-His); test: AlphaScreen saturation binding; apparent Kd; n = 3, SD; REMSA: 20 mM HEPES pH 7.5, 50 mM KCl, 0.5 ug BSA, 0.25% glycerol, room temperature, 1 h; AlphaScreen: dialysis buffer (Table S3, partly shown: 0.02% Tween, 0.1% BSA, 15% glycerol, pH 7.5?), room temperature, 90 min; details: protein: recombinant; tags: C-terminal Myc-His; label: 5'-biotin
[2] = target: T1, rLIN28B (LIN28B-Myc-His); test: AlphaScreen; REMSA: 20 mM HEPES pH 7.5, 50 mM KCl, 0.5 ug BSA, 0.25% glycerol, room temperature, 1 h; AlphaScreen: dialysis buffer (Table S3, partly shown: 0.02% Tween, 0.1% BSA, 15% glycerol, pH 7.5?), room temperature, 90 min; details: protein: recombinant; tags: C-terminal Myc-His; label: 5'-biotin

Row | Binder | Kd [1] [nM] | binding result [2]
1 | GCUAUGAUACCACCCGGUACAGGAGC (structured_RNA) [Bi-pre-let-7g] | 34.7 ± 3.6 | 
2 | GGCAUGAUACCACCCGGUACGGGC (structured_RNA) [Bi-pre-let-7g-mut] |  | no binding
